# Literature values in patent US20140295424.
# pKd: −log10 of the molar value.
# Test system: IgE (human myeloma IgE) (Homo sapiens)
# Details: CITED; KD stated for purchased aptamer D17.4, no measurement described; cited from earlier work
sequence,measurement,value
GCCTGTTGTGAGCCTCCTGTCGAAGCACGTTTATCCGTCCCTCCTAGTGGCGTGCTTGAGCGTTTATTCTTGTCTCCC [IgE aptamer D17.4],pKd,8.00
